The results in this text go back to patent US20240279344A1 (CDR LIFE, published 2024).

Residue numbers refer to the chain shown, from its start.

First the molecules themselves.
B1: M1109 (bispecific antibody, V domains shown)
VH: EVQLLESGGGSVQPGGSLRLSCTVSGFSLSNYAMSWVRQAPGKGLEWIGIVSSGGTTYYASWAKGRFTISKDTSKNTVYLQMNSLRAEDTASYYCAKDLYYAPTTYSAFNLWGQGTSVTVSS
VL: SYELTQPPSVSVSPGQTASITCTADTLSRSYASWYQQKPGQSPVLVIYRDTSRPSGIPERFSGSNSGNTATLTISGTQAMDEADYYCATRPSSGSNFQLFGGGTKLTVL
notes: Variant of humanized M0763; tested in SPR as anti-CD3 Fab x anti-MAGE-A4 scFv bispecific
B2: M1123 (bispecific antibody, V domains shown)
VH: B1 VH with A102G
VL: B1 VL with S93A
notes: as for B1
B3: M1299 (bispecific antibody, V domains shown)
VH: B1 VH with A102G, F109A
VL: B1 VL with S92F, S93P
notes: as for B1
B4: M1127 (bispecific antibody, V domains shown)
VH: B1 VH with A102G
VL: B1 VL with F97A
notes: as for B1
B5: M1139 (bispecific antibody, V domains shown)
VH: B1 VH with Y59A, A102G
VL: B1 VL
notes: as for B1
B6: M1136 (bispecific antibody, V domains shown)
VH: B1 VH with T56A, A102G
VL: B1 VL
notes: as for B1
B7: M1111 (bispecific antibody, V domains shown)
VH: B1 VH with A102G, T104A
VL: B1 VL
notes: as for B1
B8: M1178 (bispecific antibody, V domains shown)
VH: B1 VH with A102G, F109A
VL: B1 VL with A88Q, T89A
notes: as for B1
B9: M1124 (bispecific antibody, V domains shown)
VH: B1 VH with A102G
VL: B1 VL with G94A
notes: as for B1
B10: M1130 (bispecific antibody, V domains shown)
VH: B1 VH with I50A, A102G
VL: B1 VL
notes: as for B1
B11: M1145 (bispecific antibody, V domains shown)
VH: B1 VH with G65A, A102G
VL: B1 VL
notes: as for B1
B12: M1122 (bispecific antibody, V domains shown)
VH: B1 VH with A102G
VL: B1 VL with P91A
notes: as for B1
B13: M1114 (bispecific antibody, V domains shown)
VH: B1 VH with A102G, S107A
VL: B1 VL
notes: as for B1
B14: M1120 (bispecific antibody, V domains shown)
VH: B1 VH with A102G
VL: B1 VL with T89A
notes: as for B1
B15: M1297 (bispecific antibody, V domains shown)
VH: B1 VH with A102G, T104S, S107F, A108V, F109A
VL: B1 VL
notes: as for B1
B16: M1298 (bispecific antibody, V domains shown)
VH: B1 VH with A102G, F109A
VL: B1 VL with S92W, S93P
notes: as for B1
B17: M1169 (bispecific antibody, V domains shown)
VH: B1 VH with A102G, F109A
VL: B1 VL with Q98V
notes: as for B1
B18: M1133 (bispecific antibody, V domains shown)
VH: B1 VH with S53A, A102G
VL: B1 VL
notes: as for B1
B19: M1131 (bispecific antibody, V domains shown)
VH: B1 VH with V51A, A102G
VL: B1 VL
notes: as for B1
B20: M1134 (bispecific antibody, V domains shown)
VH: B1 VH with G54A, A102G
VL: B1 VL
notes: as for B1
B21: M1140 (bispecific antibody, V domains shown)
VH: B1 VH with A60S, A102G
VL: B1 VL
notes: as for B1
B22: M1125 (bispecific antibody, V domains shown)
VH: B1 VH with A102G
VL: B1 VL with S95A
notes: as for B1
B23: M1142 (bispecific antibody, V domains shown)
VH: B1 VH with W62A, A102G
VL: B1 VL
notes: as for B1
B24: M1171 (bispecific antibody, V domains shown)
VH: B1 VH with A102G, F109L
VL: B1 VL
notes: as for B1
B25: M1129 (bispecific antibody, V domains shown)
VH: B1 VH with A102G
VL: B1 VL with L99A
notes: as for B1
B26: M1141 (bispecific antibody, V domains shown)
VH: B1 VH with S61A, A102G
VL: B1 VL
notes: as for B1
B27: M1119 (bispecific antibody, V domains shown)
VH: B1 VH with A102G
VL: B1 VL with A88S
notes: as for B1
B28: M1110 (bispecific antibody, V domains shown)
VH: B1 VH with A102G, P103A
VL: B1 VL
notes: as for B1
B29: M1177 (bispecific antibody, V domains shown)
VH: B1 VH with A102G, F109A
VL: B1 VL with F97T, Q98V, L99V
notes: as for B1
B30: M1143 (bispecific antibody, V domains shown)
VH: B1 VH with A63S, A102G
VL: B1 VL
notes: as for B1
B31: M1117 (bispecific antibody, V domains shown)
VH: B1 VH with A102G, N110A
VL: B1 VL
notes: as for B1
B32: M1176 (bispecific antibody, V domains shown)
VH: B1 VH with A102G, F109A
VL: B1 VL with N96V
notes: as for B1
B33: M1202 (bispecific antibody, V domains shown)
VH: B1 VH with A102G, A108S, F109A
VL: B1 VL
notes: as for B1
B34: M1132 (bispecific antibody, V domains shown)
VH: B1 VH with S52A, A102G
VL: B1 VL
notes: as for B1
B35: M1128 (bispecific antibody, V domains shown)
VH: B1 VH with A102G
VL: B1 VL with Q98A
notes: as for B1
B36: M1253 (bispecific antibody, V domains shown)
VH: B1 VH with A102G, F109A
VL: B1 VL with L99A
notes: as for B1
B37: M1113 (bispecific antibody, V domains shown)
VH: B1 VH with A102G, Y106A
VL: B1 VL
notes: as for B1
B38: M1135 (bispecific antibody, V domains shown)
VH: B1 VH with G55A, A102G
VL: B1 VL
notes: as for B1
B39: M1144 (bispecific antibody, V domains shown)
VH: B1 VH with K64A, A102G
VL: B1 VL
notes: as for B1
B40: M1138 (bispecific antibody, V domains shown)
VH: B1 VH with Y58A, A102G
VL: B1 VL
notes: as for B1
B41: M1121 (bispecific antibody, V domains shown)
VH: B1 VH with A102G
VL: B1 VL with R90A
notes: as for B1
B42: M1137 (bispecific antibody, V domains shown)
VH: B1 VH with T57A, A102G
VL: B1 VL
notes: as for B1
B43: M1115 (bispecific antibody, V domains shown)
VH: B1 VH with A102G, A108S
VL: B1 VL
notes: as for B1
B44: M1172 (bispecific antibody, V domains shown)
VH: B1 VH with A102G, F109P
VL: B1 VL
notes: as for B1
B45: M1112 (bispecific antibody, V domains shown)
VH: B1 VH with A102G, T105A
VL: B1 VL
notes: as for B1

The target in the assay is T1, HLA-A2/MAGE-A4 complex, recombinant (HLA-A*02:01 extracellular domain, human b2m, MAGE-A4 peptide 230-239 …) (human, UniProt P04439 25-299 at identity 0.94); P61769 21-119).
T1 construct: also called MAGE-A4 pMHC; MAGE-A4/HLA-A2 complex
Kind of assay: SPR, monovalent. (In general: Surface plasmon resonance follows binding to a sensor surface in real time, without labels.)
Turning to B1, the Kd (commonly the constant that tells how readily two partners part at equilibrium) worked out at 11.7 nM.
As to B2, the Kd stood at 0.79 nM.
Next, B3: 0.05 nM.
On to B4, for which the dissociation constant (Kd) is 0.89 nM.
Consider B5, for which the dissociation constant (Kd) is 2.1 nM.
Next, B6: 2.7 nM.
For the molecule B7, the Kd worked out at 0.65 nM.
Consider B8, for which the equilibrium dissociation constant (Kd) was 8.3 nM.
As to B9, the Kd was found to be 0.65 nM.
For the molecule B10, the Kd came to 2.2 nM.
For B11, the Kd came out at 2.1 nM.
Next, B12: 0.75 nM; B13: 1.18 nM.
Consider B14, for which the Kd was 1.21 nM.
With B15, the dissociation constant (Kd) came to 0.09 nM.
As to B16, the Kd worked out at 0.07 nM.
For the molecule B17, the Kd was 3.2 nM.
In the case of B18, the equilibrium dissociation constant (Kd) came out at 12.4 nM.
In the case of B19, the Kd is 3.2 nM.
Regarding B20, the Kd stood at 4.2 nM.
Then B21, with 2.8 nM; and B22, with 0.89 nM.
In the case of B23, the equilibrium dissociation constant (Kd) amounted to 2.9 nM.
Turning to B24, the Kd is 4.4 nM.
B25: the Kd was found to be 0.46 nM.
B26: the equilibrium dissociation constant (Kd) was 1.2 nM.
For B27, the Kd came to 0.91 nM.
As to B28, the dissociation constant Kd worked out at 9.65 nM.
As to B29, the dissociation constant Kd was 4.2 nM.
Next, B30: 2.4 nM; B31: 4.2 nM; B32: 6 nM.
On to B33, for which the Kd was determined as 3.9 nM.
Then B34, with 4.1 nM.
Turning to B35, the Kd amounted to 1.32 nM.
Then B36, with 2.55 nM; and B37, with 15.3 nM; and B38, with 2.4 nM.
Consider B39, for which the Kd is 2.3 nM.
Consider B40, for which the Kd came to 3.1 nM.
Regarding B41, the Kd is 6.53 nM.
As to B42, the Kd worked out at 2.2 nM.
Next, B43: 0.48 nM; B44: 1.5 nM.
Then B45, with 35.9 nM.
